The source of these data is IntAct's records for PubMed 18854156.

B1: Sporulation initiation inhibitor protein Soj (Bacillus subtilis), P37522 (parent)
chain: MGKIIAITNQKGGVGKTTTSVNLGACLAYIGKRVLLVDIDPQGNATSGLGIEKADVEQCVYDILVDDADVIDIIKATTVENLDVIPATIQLAGAEIELVPTISREVRLKRALEAVKQNYDYIIIDCPPSLGLLTINALTASDSVVIPVQCEYYALEGLSQLLNTVRLVQKHLNTDLMIEGVLLTMLDARTNLGIQVIEEVKKYFRDKVYKTVIPRNVRLSEAPSHGKPIILYDPRSRGAEVYLDLAKEVAANG

Variants of B1 are the subject of one test. Conditions: with dnaa_bacsu dnaA.
MGKIIAITNQKGGVGATTTSVNLGACLAYIGKRVLLVDIDPQGNATSGLGIEKADVEQCVYDILVDDADVIDIIKATTVENLDVIPATIQLAGAEIELVPTISREVRLKRALEAVKQNYDYIIIDCPPSLGLLTINALTASDSVVIPVQCEYYALEGLSQLLNTVRLVQKHLNTDLMIEGVLLTMLDARTNLGIQVIEEVKKYFRDKVYKTVIPRNVRLSEAPSHGKPIILYDPRSRGAEVYLDLAKEVAANG [K16A]: the “effect of a mutation on the interaction” value was “increasing interaction”.
Turning to MGKIIAITNQKVGVGKTTTSVNLGACLAYIGKRVLLVDIDPQGNATSGLGIEKADVEQCVYDILVDDADVIDIIKATTVENLDVIPATIQLAGAEIELVPTISREVRLKRALEAVKQNYDYIIIDCPPSLGLLTINALTASDSVVIPVQCEYYALEGLSQLLNTVRLVQKHLNTDLMIEGVLLTMLDARTNLGIQVIEEVKKYFRDKVYKTVIPRNVRLSEAPSHGKPIILYDPRSRGAEVYLDLAKEVAANG [G12V], the “effect of a mutation on the interaction” value is given as “increasing interaction”.

The variants in the next test derive from B1. The following applies: with dnaa_bacsu dnaA. This is another data set of the same source.
MGKIIAITNQKGGVGKTTTSVNLGACLAYIGKRVLLVDIAPQGNATSGLGIEKADVEQCVYDILVDDADVIDIIKATTVENLDVIPATIQLAGAEIELVPTISREVRLKRALEAVKQNYDYIIIDCPPSLGLLTINALTASDSVVIPVQCEYYALEGLSQLLNTVRLVQKHLNTDLMIEGVLLTMLDARTNLGIQVIEEVKKYFRDKVYKTVIPRNVRLSEAPSHGKPIILYDPRSRGAEVYLDLAKEVAANG [D40A]: the “effect of a mutation on the interaction” value is recorded as “decreasing interaction”.
